The values that follow come from PMC9282883.

The target of the test is SARS-CoV-2 RBD WT (for SPR binding assays) (SARS-CoV-2) (UniProt P0DTC2).

S309 IgG1 (antibody) showed an IC50, neutralisation of authentic SARS-CoV-2 (SARS-CoV-2-Nluc) on Vero E6 cells of 0.0789 µg/mL and an IC90, neutralisation of authentic SARS-CoV-2 (SARS-CoV-2-Nluc) on Vero E6 cells of 0.3 µg/mL.
